The values that follow come from patent US7820790B2, “IL-6 binding proteins” (Amgen Mountain View Inc., priority 2005, dated 2010).

For one assay, the target named is T1, IL-6R (Homo sapiens, UniProt P08887).
T1 sequence (P08887 20-468): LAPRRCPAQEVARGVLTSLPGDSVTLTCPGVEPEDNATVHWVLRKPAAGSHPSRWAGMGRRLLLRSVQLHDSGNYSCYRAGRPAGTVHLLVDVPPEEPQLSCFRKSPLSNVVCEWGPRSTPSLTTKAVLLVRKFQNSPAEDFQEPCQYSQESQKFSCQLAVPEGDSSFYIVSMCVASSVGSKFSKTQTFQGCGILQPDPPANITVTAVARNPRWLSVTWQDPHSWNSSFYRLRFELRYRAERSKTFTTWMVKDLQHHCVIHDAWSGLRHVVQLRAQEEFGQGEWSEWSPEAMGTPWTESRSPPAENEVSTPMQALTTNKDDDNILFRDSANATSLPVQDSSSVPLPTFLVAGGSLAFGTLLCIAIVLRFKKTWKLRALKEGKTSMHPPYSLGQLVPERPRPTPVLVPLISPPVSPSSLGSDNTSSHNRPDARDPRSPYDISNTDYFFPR
The conditions noted are these: dose-dependent manner; Nishimoto et al; cited from earlier work.

A further assay concerns TF-1 cells. The assay is described as follows: Stimulation of TF-1 cell proliferation by rhIL-6 (control experiments). The format is cell-based, human. As for the experimental part: TF-1, a GM-CSF dependent human erythroleukemia cell line, was purchased from ATCC(CRL-2003). IL-6 is a potent stimulator of TF-1 cell proliferation. The use of TF-1 cells for determining efficacy of IL-6, IL-6R, and/or gp130 inhibitors is well-established in the art.
TF-1 cells were maintained in growth medium (RPMI 1640 supplemented with 50 uM 2-ME, antibiotic-antimycotic), 10% FBS and 5 ng/ml hGM-CSF (Leukine). Prior to assay, TF-1 cells were washed and cultured overnight in growth medium plus 1% FBS and Leukine. TF-1 cells were then washed three times with growth medium plus 1% FBS, without Leukine prior to the assay.
TF-1 cells (1×10^4/well) were cultured in the presence or absence of the anti-IL-6 inhibitors-hIL-6 mixture in a 96-well flat bottom plate (Becton Dickinson) in a final volume of 200 ul/well for 40 hr in a humidified incubator at 37° C., 5% CO2. Cells were pulse-labeled with 1 uCi/well of [^3H]-Thymidine (Amersham Biosciences) during the final 16 hr of culture. Plates were harvested with a semiautomatic cell harvester (Tomtec, Inc.) and [^3H]-Thymidine incorporation was measured using a Microbeta-counter (Wallac-Perkin Elmer). Results are expressed as average cpm from triplicate wells.
Control experiments determined 0.2 ng/mL as the EC50 of rhIL-6 for stimulation of TF-1 cell proliferation.

In assay [1] the test system is Human heparinized-whole blood. In words: IL-6 stimulation of IgE in human whole blood. Conditions: 50 ng/ml IL-6, 6.5 hr; compared to unstimulated controls or anti-IL-6 mAb controls. It is filed as cell-based. As for the experimental part:
Human heparinized-whole blood was obtained from six normal individuals from Stanford University Blood Bank. The avimer used in these experiments was generated as described in the above examples.
Briefly, 500 ul of heparinized human blood from several donors was cultured in 12×75 mm tubes or individual wells of a 24 well plate in the presence of 50 ng/ml of human IL-6; exemplary IL-6/IgG binding tetramers, a negative control avimer, 0.01-600 nM; anti-IL-6 monoclonal antibody (Clone 6708-111, R&D Systems) or mouse IgG1 isotype control antibody (eBioscience), 3, 10 or 30 ug/ml, or no inhibitors. Inhibitors or controls were diluted in RPMI1640+10% human AB serum before addition to the cultures. Final volume was 1 ml per sample.
Samples were incubated for 6.5 hr at 37° C. with 5% CO2. Samples were removed from incubator and centrifuged at 1500 rpm for 10 minutes at room temperature. Plasma samples were divided in two portions and one set was shipped to Rules Based Medicine for determination of the concentrations of IL-6- and avimer-regulated analytes. The second set of plasma samples was stored at −80° C.

As to “MRA: humanized anti-IL-6R antibody (MRA)”, in the assay with IL-6R, the HDL increase is reported as ~26% and the LDL increase is listed as 12-23%.
In the case of “rhIL-6: recombinant human IL-6 (R&D Systems)”, in the assay on TF-1 cells, the “EC50 for stimulation of TF-1 cell proliferation” value is 0.2 ng/mL. For the same substance, the “increase of IgE concentration in supernatants” value in assay [1] was 2-3 fold.
